Data reported in the supplement of paper PMC9170038.

What was measured:
MS2 coat protein [1] = assay: apparent KD of MS2 coat protein, switch ON state; designed switch direction (-1 OFF switch, 1 ON switch): 1; higher = weaker reporter binding; conditions: FMN input: 0 or 200 uM; Eterna round: R93 (includes R88 designs)
Procedure, shortened: (§1)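 On-chip transcription from Illumina sequencing clusters produced the designed RNA switches. These were titrated with SNAP-549-labelled MS2 coat protein (twofold steps, 0.7 or 1.5 nM to 3 µM) in 100 mM Tris-HCl pH 7.5, 80 mM KCl, 4 mM MgCl2, with or without constant ligand. The apparent KD given is the per-design median of normalised cluster binding-curve fits.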

MS2 coat protein [2] = assay: apparent KD of MS2 coat protein, switch OFF state (with FMN for OFF switches, without FMN for ON switches); designed switch direction (-1 OFF switch, 1 ON switch): 1; higher = weaker reporter binding; conditions: FMN input: 0 or 200 uM; Eterna round: R93 (includes R88 designs)
Procedure, shortened: as §1

Row | Sequence | apparent KD of MS2 coat protein (MS2 coat protein [1]) | apparent KD of MS2 coat protein (MS2 coat protein [2])
1 | AAAGAAAAACUAGAGGAUAUCUAGAUGAUAACAUGAGGAUCACCCAUGUGAAGAAAGGAAUAUAGGGAGAAGGCUAGAAGAAAAA [JL Nando mod 20] | 21.8 nM | 28.6 nM
2 | AAAGACGUGGCGUAGGAUAUACUAAUAUUCACAUGAGGAUCACCCAUGUUCAUAUAUAUGAACGAGUAGAAGGACGACGAAAAAA [SameState2 Malc#1] | 59.3 nM | 120 nM
3 | AAAUAAAGGACUGAGGAUAUACCACAUGAAACAUGAGGAUCACCCAUGUUAAAAAACAAAGGGUGGUAGAAGGCAGUCCACAAAC [Same State 2.5f ( so lets mod hyphema)] | 9.26 nM | 12.1 nM
4 | AAAUAAAUGACUGAGGAUAUAUCGAUGUGUACAUGAGGAUCACCCAUGUGUGAAUAAAAAGGGUGGUAGAAGGUAGUCAACAAAC [Mod 17 of Pariah 4 by Hyphema in Round 1] | 76.9 nM | 66.7 nM
5 | AAAUAACAUGAGGAUCACCCAUGUCAAAUAAAUCGAGGAUAUGGGCCCGGGUUCCGGGAGCCAGAAGGCGAAAAGA [Teledimaqu] | 16.9 nM | 41.6 nM
6 | AAAUAACAUGAGGAUCACCCAUGUUACGACUUUACAGGAUAUGUGGGUGAAAAUAGCAUGACAGAAGGGUACAGUA [SameState1 Malc#36] | 205 nM | 112 nM
7 | AAAUAACAUGAGGAUCACCCAUGUUGCAACGAUACAGGAUAUGUGGGUGAAAAUAGCAUGACAGAAGGGUAAUGUA [SameState1 Malc#31] | 401 nM | 35 nM
8 | AACAAUCUAUCUGAGGAUAUCAUAAAAAAAACAUGAGGAUCACCCAUGUGCAGGAAAACUGCAUAUGAGAAGGCAGAUAGAUUGA [SS2: 1102] | 8.73 nM | 10.6 nM
9 | AACAAUCUAUCUGAGGAUAUCAUGAAAAAGACAUGAGGAUCACCCAUGUACCAGGAAACUGGUUAUGAGAAGGCAGAUAGAUUGA [SS2: 1116] | 9.32 nM | 14.4 nM
10 | AACACGCGGGCGCAGGAUAUGUCGCUGGUGACAUGAGGAUCACCCAUGUAUACCAUUGCGGUUGAGCAGAAGGGUGAGAUGCGUG [Beisesanxe] | 15.9 nM | 59.5 nM
11 | AACAUACAUGAGGAUCACCCAUGUUAGGUGGGACUAGGAUAUCAAUCGAAAGUGUUAUAAUGAGAAGGAGUAUAAA [JR_SS001_Sub015] | 127 nM | 209 nM
12 | AAGAAACAUGAGGAUCACCCAUGUAAGAUAUACACAGGAUAUGCGAAAAGAAACAAAGAAGCAGAAGGGUGGAAAA [75%, Ex sub1, 10] | 14.9 nM | 33.4 nM
13 | AAGAAACAUGAGGAUCACCCAUGUGAGAAUAACACAGGAUAUGCAAAAGAAAGAAAGAAAGCAGAAGGGUGAAGAA [Mat - Same State 1 - Tesla mod - 53] | 23.3 nM | 59.1 nM
14 | AAGAAACAUGAGGAUCACCCAUGUGAUAAUAUGGGAGGAUAUACGAAGACGAAAGUCGAAGUAGAAGGCCUAUGAA [Garnet 42] | 40.2 nM | 57.2 nM
15 | AAGAAAGUUUACGAGGAUAUGUUCCGCAGAACAUGAGGAUCACCCAUGUGAACAAGAAAGGCGACGCAGAAGGCGUGAGCAAAGA [Anvedi] | 35.9 nM | 105 nM
16 | AAGAAUGUUUACGAGGAUAUGUUCCGCAGAACAUGAGGAUCACCCAUGUGAACAAGAAAGGCGACGCAGAAGGCGUGAGCAAAGA [Laatreve] | 45.7 nM | 324 nM
17 | AAGACACAUGAGGAUCACCCAUGUCAAGAGAGACGAGGAUAUCUGAAAAAAAAAAAAAAAGGAGAAGGCGUGAAAA [Same State of Confusion] | 33.5 nM | 69.3 nM
18 | AAGAGACAUGAGGAUCACCCAUGUAGGAUUAUGGGAGGAUAUACAAAGACGAGAGUCAGAGUAGAAGGCCUAGGAG [salish99-ss1-131(!)] | 23.2 nM | 57.4 nM
19 | AAUAAAAAUAGUUAGGAUAUGAGAAUUAAGACAUGAGGAUCACCCAUGUAAUUAAAACAAGUAAAUCAGAAGGGACAGGGUGAAA [JR_SS002_Sub204] | 99.4 nM | 46 nM
20 | AAUAAACAUGAGGAUCACCCAUGUUUUAAUAGUUGAGGAUAUACGGGUGAAAAUAGCAUAGUAGAAGGCGAGUGUA [SameState1 Malc#13] | 31.2 nM | 36.8 nM
21 | AAUAACAAAAGAAAGGAUAUGCGCACAGGAACAUGAGGAUCACCCAUGUGCCGCCAAGGCGGAUAGCAGAAGGUUCACACGCAUA [Default title] | 19.4 nM | 20.1 nM
22 | AAUAAUUAUAACGAGGAUAUCCGUAAUAAGACAUGAGGAUCACCCAUGUAAUAAGGGUAAAUAAAGGAGAAGGCGUAGGGUGAAA [JR_SS002_Sub002] | 44.3 nM | 61.1 nM

Row | Sequence | apparent KD of MS2 coat protein (MS2 coat protein [1]) | apparent KD of MS2 coat protein (MS2 coat protein [2])
23 | AAUAAUUAUACGAAGGAUAUCGGUAAUUAGACAUGAGGAUCACCCAUGUAAUAUGGUUAAAUAAUCGAGAAGGUCGAGGGUGAAA [JR_SS002_Sub503] | 55.3 nM | 42.2 nM
24 | AAUAGGAAGAGAGAGGAUAUCCAAAGGAAAACAUGAGGAUCACCCAUGUAAAAGGUAGGAAAUUGGGAGAAGGCUCAAGAGAGAG [salish99-ss2-073] | 9.55 nM | 39.9 nM
25 | AAUAUACAUGAGGAUCACCCAUGUUUUAAUAGCUGAGGAUAUACGGGUGAAAAUAGCAUAGUAGAAGGCGGGUGUA [SameState1 Malc#9] | 92.2 nM | 80 nM
26 | AAUAUACAUGAGGAUCACCCAUGUUUUGGUGUAUGAGGAUAUAAAAAAAAUUAAAUAAAAUUAGAAGGCAUAAAUA [JR_SS001_Sub001] | 49.2 nM | 48.7 nM
27 | AAUAUAUUAAGUGAGGAUAUCAUAGAAAAAACAUGAGGAUCACCCAUGUGGGAAACCUGGUCGGGUGAGAAGGCACUUAAUAUAU [Samwise Clockwise 29 - Jieux - Same State 2] | 71.4 nM | 704 nM
28 | AAUAUAUUAAGUGAGGAUAUCGAGGAAAAAACAUGAGGAUCACCCAUGUGGGAAACAUGGUAGGGUGAGAAGGUACUUAAUAUAU [Samwise Clockwise 23 - Jieux - Same State 2] | 218 nM | 220 nM
29 | AAUGAACAUGAGGAUCACCCAUGUUUUAAUAGUUGAGGAUAUAAGGGUGAAAAUAGCACAUUAGAAGGCGAGUGUA [SameState1 Malc#15] | 39.4 nM | 38 nM
30 | AAUGAACAUGAGGAUCACCCAUGUUUUAAUAGUUGAGGAUAUAUGGGUGAAAAUAGCACAGUAGAAGGCGAGUGUA [SameState1 Malc#16] | 144 nM | 133 nM
31 | AGAAAAAAAACGCAGGAUAUCCAAAAGAAAACAUGAGGAUCACCCAUGUAAAAGAAAAUAAAAUGGGAGAAGGGCGAAAAAAAGA [Mat - Same State 2 - Eli mod - D93] | 9.91 nM | 18.5 nM
32 | AGAAAACAUGAGGAUCACCCAUGUAGAAACAUGGGAGGAUAUACAAAGACGAAAGUCAAAGUAGAAGGCCUAAAGA [Mat - Same State 1 - Mod - D161] | 207 nM | 152 nM
33 | AGAAAACAUGAGGAUCACCCAUGUAGAAAUAUGGGAGGAUAUACAAAGACGAAAGUCGAAGUAGAAGGCCUAAAGA [Mat - Same State 1 - Meechl mod - D123] | 22 nM | 58.7 nM
34 | AGAAAACAUGAGGAUCACCCAUGUGAUAAUAUGGGAGGAUAUACGGAGACGAAAGUCGACGUAGAAGGCCUAAAGA [Garnet 49] | 42.9 nM | 82.8 nM
35 | AGAAAUAAAAGAGAGGAUAUCUUAAAGAAAACAUGAGGAUCACCCAUGUAAAAGAAAAUAAAAUGGGAGAAGGCUCAUAAUAAAG [JL Skelter Mod 4 In the Red] | 151 nM | 109 nM
36 | AGAAAUAAAGCAGAGGAUAUCCAAAAGAAAACAUGAGGAUCACCCAUGUAAAAGAAAAUAAAAUGGGAGAAGGCUGCAAAUAAAG | 18.5 nM | 23.9 nM
37 | AGGAAACAUGAGGAUCACCCAUGUAAAAAAAUGGGAGGAUAUCCGCAUUAAUUAAAUGAAGGAGAAGGCCUAAAAA [71%, Same state of confusion2, 5] | 21.6 nM | 63.1 nM
38 | AGGAAACAUGAGGAUCACCCAUGUAAAAAAGUGGGAGGAUAUGCGAAAAGAAAAAGAAAAGCAGAAGGCCUAAGAA [62%, Something completely different, 6] | 21.9 nM | 42.7 nM
39 | AGGAAACAUGAGGAUCACCCAUGUAAAAAUAUGGGAGGAUAUACGAAGACGAAAGAAAAAGUAGAAGGCCUAAAAG [Garnet 14] | 63.6 nM | 155 nM
40 | AGGAAACAUGAGGAUCACCCAUGUAAAAAUAUGGGAGGAUAUACGAAGACGAAAGUAAGAGUAGAAGGCCUAAAAG [Garnet 9] | 23.9 nM | 90.6 nM
41 | AGGAAACAUGAGGAUCACCCAUGUAAAAAUAUGGGAGGAUAUACGAAGACGAAAGUGAGAGUAGAAGGCCUAAAAG [Garnet 8] | 30.9 nM | 87.7 nM
42 | AGGAAACAUGAGGAUCACCCAUGUAAAAAUAUGGGAGGAUAUGCGAAAAGAAACAAAGAAGCAGAAGGCCUAAAAA [75%, Ex sub1, 21] | 21.9 nM | 66.9 nM
43 | AGGAAACAUGAGGAUCACCCAUGUAAAAGGUGGUUAGGAUAUGCGAUAAUAAAAAUAAUAGCAGAAGGGACAAGAA [Same State of Confusion3 mod Fisker] | 215 nM | 416 nM
